According to the Human Domainome abundance scans (Beltran et al. 2025):
± gives the uncertainty stated by the source.

B1: Intersectin-1, residues 909 to 971; numbered along this chain, Q15811 (parent)
chain: QGEKVEGLQAQALYPWRAKKDNHLNFNKNDVITVLEQQDMWWFGEVQGQKGWFPKSYVKLISG

Variants of: B1
Experiment: abundance fitness (aPCA) (normalised: wild type 0, dead -1); higher = more abundant; growth selection in yeast, the domain comes from the species named
Conditions: Homo sapiens

Abundance fitness: each site, then its substitutions
E45: D -0.223 ± 0.26, L -0.076 ± 0.096, Y 0.003 ± 0.26, N -0.356 ± 0.3, S -0.039 ± 0.14, A -0.245 ± 0.12, R -0.034 ± 0.12, V -0.013 ± 0.1, T 0.073 ± 0.15, G -0.263 ± 0.11, M -0.18 ± 0.17, C -0.117 ± 0.3, I -0.192 ± 0.16, F -0.055 ± 0.3, Q 0.067 ± 0.16, W -0.274 ± 0.15, H 0.089 ± 0.21, K -0.222 ± 0.21
K59: W -0.747 ± 0.24, N -0.114 ± 0.43, L -0.331 ± 0.14, C -0.192 ± 0.2, S -0.122 ± 0.13, V -0.234 ± 0.12, E -0.128 ± 0.14, Y -0.378 ± 0.33, G -0.424 ± 0.11, D -0.615 ± 0.28, R -0.043 ± 0.09, T -0.31 ± 0.13, A -0.165 ± 0.14, I -0.227 ± 0.21, H -0.211 ± 0.33, Q -0.109 ± 0.17, M -0.108 ± 0.23
S56: I -0.491 ± 0.26, Y -0.225 ± 0.28, K -0.251 ± 0.2, Q -0.099 ± 0.2, L -0.102 ± 0.092, E -0.178 ± 0.18, T -0.016 ± 0.16, M -0.238 ± 0.12, D -0.1 ± 0.18, C -0.204 ± 0.28, G -0.147 ± 0.068, V -0.099 ± 0.081, F -0.239 ± 0.19, P -0.298 ± 0.22, W -0.393 ± 0.17, A -0.137 ± 0.13
M40: R -0.127 ± 0.1, K 0.144 ± 0.22, P 0.025 ± 0.11, I 0.034 ± 0.17, W -0.475 ± 0.22, C 0.084 ± 0.17, T -0.115 ± 0.13, Y -0.344 ± 0.26, V -0.164 ± 0.1, A -0.083 ± 0.09, Q 0.052 ± 0.34, G -0.109 ± 0.11, S 0.013 ± 0.12, N 0.121 ± 0.17, F -0.233 ± 0.38, L 0.008 ± 0.094
K50: V -0.26 ± 0.12, R 0.056 ± 0.12, W -0.255 ± 0.23, F -0.208 ± 0.23, C -0.113 ± 0.17, P -0.242 ± 0.28, Q -0.308 ± 0.17, E -0.052 ± 0.12, H -0.271 ± 0.23, I -0.224 ± 0.21, T -0.108 ± 0.15, L -0.383 ± 0.14, D -0.256 ± 0.2, S -0.139 ± 0.11, N 0.014 ± 0.16, A -0.183 ± 0.1, M -0.177 ± 0.26
W52: Q -0.776 ± 0.46, R -1 ± 0.21, A -0.708 ± 0.41, M -0.804 ± 0.46, G -1.18 ± 0.39, T -0.89 ± 0.28, P -0.721 ± 0.27, V -0.944 ± 0.25, S -1.15 ± 0.41, F -0.232 ± 0.4, K -0.375 ± 0.45, I -0.458 ± 0.25
V46: R -0.1 ± 0.082, D -0.384 ± 0.31, Q -0.279 ± 0.17, G -0.193 ± 0.073, A 0.015 ± 0.078, Y -0.287 ± 0.29, W -0.09 ± 0.13, K -0.051 ± 0.21, C 0.012 ± 0.18, N -0.309 ± 0.3, T -0.155 ± 0.14, I -0.11 ± 0.11, H 0.035 ± 0.2, M -0.048 ± 0.11, E -0.584 ± 0.13, L 0.079 ± 0.083, S -0.001 ± 0.13, F -0.101 ± 0.34
F43: W -0.061 ± 0.14, S -0.546 ± 0.13, D -0.997 ± 0.34, G -0.596 ± 0.16, L -0.019 ± 0.09, M -0.107 ± 0.17, A -0.696 ± 0.13, V -0.923 ± 0.18, P -0.808 ± 0.17, H 0.168 ± 0.47, I -0.663 ± 0.48, T -0.811 ± 0.47, C -0.563 ± 0.33, Y -0.119 ± 0.29, E -0.465 ± 0.12, N -0.427 ± 0.25, R -0.328 ± 0.086, K -0.202 ± 0.11
G51: R -0.89 ± 0.26, E -0.86 ± 0.29, V -0.97 ± 0.27, A -0.408 ± 0.2, S -0.988 ± 0.3, M -0.938 ± 0.45, D -0.793 ± 0.4, C -0.709 ± 0.32
Q49: S -0.232 ± 0.14, R -0.031 ± 0.081, G -0.005 ± 0.14, N -0.403 ± 0.38, C 0.046 ± 0.16, M -0.052 ± 0.21, V -0.065 ± 0.098, D -0.466 ± 0.3, H 0.045 ± 0.22, Y -0.303 ± 0.31, E 0.222 ± 0.29, I -0.208 ± 0.3, K -0.483 ± 0.42
G44: D -0.999 ± 0.4, T -0.604 ± 0.28, C -0.79 ± 0.46, P -1.11 ± 0.41, A -1.03 ± 0.34, W -1 ± 0.27, V -1.1 ± 0.41
V58: I -0.451 ± 0.17, S -0.816 ± 0.23, E -0.703 ± 0.17, R -1.04 ± 0.34, G -0.881 ± 0.15, C -0.169 ± 0.14, D -0.793 ± 0.47, W -0.87 ± 0.15, P -0.379 ± 0.2, A -0.189 ± 0.088, F -0.821 ± 0.37, L -0.812 ± 0.16, T -0.395 ± 0.15
W42: D -0.429 ± 0.25, L -0.088 ± 0.066, T -0.527 ± 0.085, A -0.244 ± 0.073, G -0.734 ± 0.086, F -0.057 ± 0.17, K -1.18 ± 0.4, Q -0.837 ± 0.24, E -0.814 ± 0.12, P -0.658 ± 0.14, I -0.605 ± 0.29, V -0.411 ± 0.07, R -0.767 ± 0.093, M -0.192 ± 0.13, S -0.667 ± 0.12, Y 0.031 ± 0.15, C -0.055 ± 0.12
Q47: M -0.097 ± 0.1, V -0.097 ± 0.076, W -0.125 ± 0.17, E 0.017 ± 0.12, L -0.254 ± 0.11, K 0.027 ± 0.15, T -0.014 ± 0.14, S -0.167 ± 0.1, C -0.332 ± 0.14, A 0.009 ± 0.084, Y -0.113 ± 0.31, G -0.009 ± 0.073, N -0.084 ± 0.34, P -0.293 ± 0.19, R -0.151 ± 0.088, D -0.546 ± 0.2, F 0.133 ± 0.2
K55: L -0.24 ± 0.36, G -0.165 ± 0.24, C -0.16 ± 0.21, Q -0.005 ± 0.34, N -0.054 ± 0.26, R 0.018 ± 0.3, E -0.396 ± 0.34
G48: Y -0.074 ± 0.21, E 0.011 ± 0.15, V -0.584 ± 0.12, R -0.224 ± 0.094, D -0.061 ± 0.18, H -0.381 ± 0.49, F -0.522 ± 0.36, M -0.226 ± 0.17, L -0.259 ± 0.1, Q -0.38 ± 0.2, P -0.604 ± 0.35, S -0.149 ± 0.097, K -0.053 ± 0.18, C -0.361 ± 0.15, T -0.526 ± 0.22, W -0.939 ± 0.41, A -0.208 ± 0.11
Q37: M 0.323 ± 0.2, W -0.162 ± 0.16, S -0.294 ± 0.14, N -0.279 ± 0.22, R -0.06 ± 0.11, K 0.149 ± 0.28, T -0.052 ± 0.18, P -0.289 ± 0.18, V -0.588 ± 0.24
Y57: S -0.308 ± 0.14, C -0.153 ± 0.14, R -0.013 ± 0.08, E -0.243 ± 0.22, P -1.02 ± 0.4, A 0.12 ± 0.11, W -0.258 ± 0.36, V -0.084 ± 0.11, N 0.212 ± 0.41, G -0.572 ± 0.13, I -0.289 ± 0.28, L 0.013 ± 0.13, Q -0.14 ± 0.12, K 0.081 ± 0.23, D -0.399 ± 0.24, T -0.013 ± 0.16, H -0.238 ± 0.18, F 0.279 ± 0.34, M 0.008 ± 0.13
W41: M -0.071 ± 0.085, K -0.427 ± 0.31, F -0.238 ± 0.18, P -0.94 ± 0.2, R -0.6 ± 0.092, A -0.489 ± 0.13, C -0.318 ± 0.096, H -0.36 ± 0.2, N -0.154 ± 0.15, V -0.319 ± 0.14, T -0.659 ± 0.23, L -0.252 ± 0.089, G -0.78 ± 0.28, D -0.245 ± 0.13, S -0.274 ± 0.085, Y -0.053 ± 0.18, Q -0.316 ± 0.15, E -0.59 ± 0.17, I -0.815 ± 0.45
Q38: C -0.04 ± 0.18, F -0.423 ± 0.24, W -0.286 ± 0.15, M -0.061 ± 0.16, A -0.463 ± 0.2, E 0.008 ± 0.16, P -0.313 ± 0.16, V -0.302 ± 0.12, G 0.026 ± 0.079, S -0.148 ± 0.16, L -0.056 ± 0.21, K -0.173 ± 0.17, R 0.029 ± 0.12
D39: K -0.268 ± 0.13, V -0.304 ± 0.14, S -0.127 ± 0.18, A -0.014 ± 0.093, L -0.385 ± 0.17, M -0.221 ± 0.18, G -0.014 ± 0.057, Q -0.328 ± 0.16, E -0.071 ± 0.15, R -0.182 ± 0.072, C -0.262 ± 0.24, T -0.009 ± 0.2, H -0.454 ± 0.39, P -0.297 ± 0.15, N -0.215 ± 0.15, W -0.588 ± 0.16, F -0.313 ± 0.17, Y -0.208 ± 0.27
F53: V -0.677 ± 0.29, G -0.569 ± 0.29, K -0.962 ± 0.41, W -0.798 ± 0.18, Y -0.666 ± 0.42, R -0.951 ± 0.23, M -0.543 ± 0.47, H -0.709 ± 0.49, Q -1.03 ± 0.42, L -0.701 ± 0.13, E -0.858 ± 0.46, S -0.932 ± 0.18
P54: K -0.354 ± 0.22, L -0.215 ± 0.11, S -0.88 ± 0.27, D -0.721 ± 0.27, R -0.714 ± 0.12, C -0.765 ± 0.34, F -0.8 ± 0.46, M -0.25 ± 0.11, W -0.437 ± 0.18, V -0.499 ± 0.12, Q -0.688 ± 0.3, G -1.18 ± 0.41, E -0.474 ± 0.14
